Test results published in paper PMC8635974.

Molecular target: M3R-YFP (muscarinic acetylcholine receptor M3 with YFP fused C-terminally) (UniProt P20309)
Assay: FRET or BRET; single-cell FRET in HEK293T cells transfected with M3R-YFP, Gαq, Gβ1 and mTurquoise2-Gγ2; laminar superfusion with buffer (137 mM NaCl, 5.4 mM KCl, 2 mM CaCl2, 1 mM MgCl2, 10 mM HEPES, pH 7.3) or agonist (ACh 30 µM, Metha, Fur, Are, Guva, Pilo, Mda one after the other in the same cell); amplitudes normalized to ACh; room temperature

Sequence of UniProt P20309 (P20309 whole entry, the tested form may be a part): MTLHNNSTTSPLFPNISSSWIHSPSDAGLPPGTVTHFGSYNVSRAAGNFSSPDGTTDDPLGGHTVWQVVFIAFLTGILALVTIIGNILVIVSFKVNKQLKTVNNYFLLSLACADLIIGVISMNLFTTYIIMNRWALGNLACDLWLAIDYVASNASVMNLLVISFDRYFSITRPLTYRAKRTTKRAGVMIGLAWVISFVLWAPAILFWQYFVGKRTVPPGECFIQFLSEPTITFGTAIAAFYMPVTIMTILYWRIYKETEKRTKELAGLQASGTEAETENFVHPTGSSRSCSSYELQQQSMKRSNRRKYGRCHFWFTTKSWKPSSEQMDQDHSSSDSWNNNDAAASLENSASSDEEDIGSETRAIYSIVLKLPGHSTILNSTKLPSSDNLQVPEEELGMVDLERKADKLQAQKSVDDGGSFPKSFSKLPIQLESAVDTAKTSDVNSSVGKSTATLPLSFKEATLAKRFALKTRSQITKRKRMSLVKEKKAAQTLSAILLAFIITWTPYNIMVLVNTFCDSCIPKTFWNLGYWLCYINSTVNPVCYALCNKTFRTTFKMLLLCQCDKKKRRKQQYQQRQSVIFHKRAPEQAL

For “Gq protein (Gαq, Gβ1 and mTurquoise2-Gγ2) (from UniProt P50148 1-359; P62873 1-340; P59768 1-71) (complex; other documents disagree on this pair)”, the FRET amplitude with Are as agonist, relative to ACh (% of the ACh signal) was 20, the FRET amplitude with Fur as agonist, relative to ACh (% of the ACh signal) was 60 and the FRET amplitude with Guva as agonist, relative to ACh (% of the ACh signal) was 20. For the same substance, the FRET amplitude with Mda as agonist, relative to ACh (% of the ACh signal) was 8, the FRET amplitude with Metha as agonist, relative to ACh (% of the ACh signal) was 60 and the FRET amplitude with Pilo as agonist, relative to ACh (% of the ACh signal) was 8.
